Data on one molecule can be found in publication PMC13541614 (Nature Methods, 2026).

In the assay the target is H5N1 influenza hemagglutinin (HA) of A/Vietnam/1203/2004, native (wild type) (Influenza A virus A/Vietnam/1203/2004 …, UniProt Q5EP31, strain). Put plainly: BLI. Particulars: both partners purified.

B1: AZD3152 (anti-SARS-CoV-2 RBD antibody), IgG (antibody, V domains shown)
VH: EVQLVESGGGLVQPGRSLRLSCAASGFPFDDYAIHWVRLAPGKGLEWVSSISWDSGSIGYADSVKGRFTISRDNAKNSLYLQMNSLRAEDTALYYCAKGAFPGYSSGWYYGLEVWGQGTTVTVSS
VL: QSVVTQPPSASGSLGQSVTISCTGTSSDVGGYNYVSWYQQHPGKAPKLMIFEVSKRPSGVPDRFSGSKSGNTASLTVSGLQAEDEADYYCSSYAGNKGVFGGGTKLTVL
notes: also called control antibody; source: Expi293F, transfected, purified (HiTrap MabSelect PrismA); copies: 2 + 2
B1: the binding result is on record as “no binding (tested: 100 nM)”.
